PMC4174003 (2014)

Legend:
[1] = target: T1, PCSK9 (Mus musculus, UniProt Q80W65); assay: SPR
T1 chain: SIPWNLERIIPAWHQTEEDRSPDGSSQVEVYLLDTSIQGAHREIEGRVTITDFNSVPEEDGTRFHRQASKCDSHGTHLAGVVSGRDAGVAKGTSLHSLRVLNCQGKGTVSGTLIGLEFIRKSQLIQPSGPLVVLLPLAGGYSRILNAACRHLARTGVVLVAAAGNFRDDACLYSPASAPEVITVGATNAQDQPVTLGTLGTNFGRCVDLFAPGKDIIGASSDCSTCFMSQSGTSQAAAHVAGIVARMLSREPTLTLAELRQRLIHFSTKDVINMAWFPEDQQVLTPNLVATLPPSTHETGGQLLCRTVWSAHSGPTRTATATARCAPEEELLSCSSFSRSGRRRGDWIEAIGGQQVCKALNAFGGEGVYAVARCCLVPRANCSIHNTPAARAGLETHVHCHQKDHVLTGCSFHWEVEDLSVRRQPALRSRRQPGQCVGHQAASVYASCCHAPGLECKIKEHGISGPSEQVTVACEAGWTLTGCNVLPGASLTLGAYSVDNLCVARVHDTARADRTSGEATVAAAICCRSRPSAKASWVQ

[2] = target: PCSK9 (Homo sapiens, UniProt Q8NBP7); assay: SPR
PCSK9 (Homo sapiens, UniProt Q8NBP7), sequence (Q8NBP7 153-692): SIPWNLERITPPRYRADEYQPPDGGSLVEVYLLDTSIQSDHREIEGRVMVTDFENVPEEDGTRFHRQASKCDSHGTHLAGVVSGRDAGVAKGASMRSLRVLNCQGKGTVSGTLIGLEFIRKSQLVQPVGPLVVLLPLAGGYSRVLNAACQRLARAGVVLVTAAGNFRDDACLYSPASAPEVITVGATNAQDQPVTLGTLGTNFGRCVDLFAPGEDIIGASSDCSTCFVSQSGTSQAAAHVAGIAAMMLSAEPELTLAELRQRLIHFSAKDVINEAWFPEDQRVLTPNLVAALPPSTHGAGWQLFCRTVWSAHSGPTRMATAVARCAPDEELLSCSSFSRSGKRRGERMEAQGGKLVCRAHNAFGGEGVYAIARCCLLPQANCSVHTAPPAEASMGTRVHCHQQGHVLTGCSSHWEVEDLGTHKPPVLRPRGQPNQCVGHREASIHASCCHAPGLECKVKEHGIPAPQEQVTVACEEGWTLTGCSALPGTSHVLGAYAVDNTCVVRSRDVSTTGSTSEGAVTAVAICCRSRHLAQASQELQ

- Kd [1]: 2.6 nM
- Kd [2]: 0.58 nM
B1: alirocumab (antibody, V domains shown)
VH: EVQLVESGGGLVQPGGSLRLSCAASGFTFNNYAMNWVRQAPGKGLDWVSTISGSGGTTNYADSVKGRFIISRDSSKHTLYLQMNSLRAEDTAVYYCAKDSNWGNFDLWGRGTLVTVSS
VL: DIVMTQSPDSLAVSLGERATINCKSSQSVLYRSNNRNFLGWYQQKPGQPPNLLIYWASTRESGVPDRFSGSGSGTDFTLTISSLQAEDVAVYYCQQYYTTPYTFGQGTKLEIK
